Laboratory results as given in the DeepSol protein solubility set.

assay: soluble on expression in E. coli; label from the status in PepcDB or PDB records

| Sequence | soluble on expression in E. coli |
| --- | --- |
| MNMTKNAFQFGIEPVRITDTDNIQVNEGLPTNADPQVYALQLAKTVKAMLNGVLKDAQDNIPFPVEVLPTRNSLPTPIIAHTLADRSVLVPVRGGKRPEVVTAPSGTEITVEPIEQAILVSHQTKLWDQKSTTGFTQGTLQQDALNICDNVIRTINSKMVDVLESSKLLKTVELPALTGSLTAKADAIMDALYENTESSFGSEVSDYGIIAHESHLKALSRLAAKQGFGGEDAIVDMLGTDVAYYNGEDRGVFMMAKRFTALSFGCFRHDGESITVVLSRDGDSQSHDLEILGKVFVVAEAATTIKMGTGSATAVLPVVKRLSFTKEAN | not soluble |
| MDNNPIENFMRTTMENIKGMIDVNTIVGEPIKNTDGSLIIPISKVSFGFASGGSEFKSQEDSQENKKIYPFGGGAGAGVSLKPIAFLVIKDDSVRLLPLNAENTYEKVVDMIPQLIEMCKGFSHKSKKEKCCNDDKKKDSNSTNGNTDNANQNSQQQSLEHHHHHH | soluble |
| MTPDHLLMLVALATFQKGIVPPTPAMELVMQVGACYHALTDAPRMGKLRLFLGKKPMAKLEQFLTEIENETDADF | not soluble |
| MSTSKRPYKILLRKVESKEENKKDTNETKKKEEESKHYEDRHYRKNDIKHYEENEKTIKSKMHYNSRNRYYDKYSMSYSRYDEKLNKQHSSEKKKDVLVPLLEQASINIKKKKIIIRKLPPTLTEENFFDSFSNNIKDELDYYYFVNGSASKDSSNDIIYSRMYLSFKDDMKTDEFIRTQNGKFFYDLNGVKYKALVSYAPNQTLIKKNKPDSRNNTLESDEYFLKCCEEMNNPVQRVKKDIDYSELINVQTENGAILSPIVIELRSKKKK | not soluble |
| MQFNNKPLIGVVHLPPLPGSPGYKGELDEVIDRAISDAAKYQEAGFDAIILENYGDFPYSKTVGKETVSAFSVVANEVKREIALPLGINVLRNDCIAAYSIAYSIKADFIRVNVLTGVAFTDQGIVEGCARELAELRTRLPSRIDVLADVHVKHATHFSNFENALLDTIERGGADAVIVTGSRTGSEVDIQELITAKRISPVPVLVGSGVNPRNIKLFWRYSDGFIVGTWVKEGGRTINEVSIERATKLAKLVKSLREGLEHHHHHH | not soluble |
| GMVKDKNDVGPKTVAILGAGGKMGARITRKIHDSAHHLAAIEIAPEGRDRLQGMGIPLTDGDGWIDEADVVVLALPDNIIEKVAEDIVPRVRPGTIVLILDAAAPYAGVMPERADITYFIGHPCHPPLFNDETDPAARTDYHGGIAKQAIVCALMQGPEEHYAIGADICETMWSPVTRTHRVTTEQLAILEPGLSEMVAMPFVETMVHAVDECADRYGIDRQAALDFMIGHLNVEIAMWFGYSPKVPSDAALRLMEFAKDIVVKEDWREALNPAKVKQAAELIAGK | soluble |
| MTVLSPSLPHAAGIDAALVENPWLGLRRSGRYFQNAETEALFARALGYARAGVCVHLAGPAGLGKTTLALRIAQALGRPVAFMTGNEWLGSRDFIGGEIGQTVTSVVDRYIQSVRRTEQSARIDWKESILGQAMRCGQTFIYDEFTRASPEANAALLSVLEEGVLVSTDGASRHQYIEAHPDFRVLLTSNPHEYQGVKAAPDALIDRMVTLRLEEPSAPTLAGIVALRSGLDPATARRIVDLILSVQRSGEMQAPPSMRTAILVARLAAPLRLAGRLSDAALAEIAADVLRGRGLEADAAAFEAKLAAPTPGETARLEHHHHHH | not soluble |
| MSRLQLAIEERDEAIARAKHMEMSLKVLENINPEENDMTLQELLNRINNADTGIAIQKNGAIIVDRIYKTKECKMRITAEEMSALIEERDAALSKCKRLEQELHHVKEQNQTSANNMRHLTAENNQERALKAKLLSMQQARETAVQQYKKLEEEIQTLRVYYSLHKSLSQEENLKDQFNYTLSTYEEALKNRENIVSITQQQNEELATQLQQALTERANMELQLQHAREASQVANEKVQKLERLVDVLRKKVGTGTMRTVI | soluble |
| MGSDKIHHHHHHMPAMQHTQPSRPQLVYLAFGPATYHQEACFSIVSALAQLGSAAGEAMDIQVYTDNAQPYARLPVTVHLLDEATRQAWNAPHGYHFRSKHVLLRQVLQQHPLAVLIDTDTFFRTSPLHLFARVAPNRLLCNAIGTRYGADQKCLLYKNLLAILESRGLADCQMPLVNSGVIGLTAENCDTLDRSIAMMDEFYPLAREAYTLEEFCLAVAAYRNLELAECTDVIHHYWSRKAQFRAKIQAWLRKHEHDPLSPPALADVALVNDQLPRPPTLHRLGYKALSLTLPSHERQFARELLYGCYPYPNEFDRACASAWWDKALENLNDRYGHVEPERLRQCLRHPGLRLSLGERRKDIEAHLLRSTQA | not soluble |
| MKPENKIPVLTRLSDEMTAVVNFQQPGLPPWPADGDIETQRQYYLLERRFWNADAPSMTTRTCAVPTPYGDVTTRLYSPQPTSQATLYYLHGGGFILGNLDTHDRIMRLLARYTGCTVIGIDYSLSPQARYPQAIEETVAVCSYFSQHADEYSLNVEKIGFAGDSAGAMLALASALWLRDKHIRCGNVIAILLWYGLYGLQDSVSRRLFGGAWDGLTREDLDMYEKAYLRNDEDRESPWYCLFNNDLTRDVPPCFIASAEFDPLIDDSRLLHQTLQAHQQPCEYKMYPGTLHAFLHYSRMMTIADDALQDGARFFMARMKTPR | not soluble |
| KYDNKEFSSAVGHYGVGNGPYFMIPGYGPYTLREVTDTVDGMYLPLSYLNIWAGLGKWALEGLEKRALLVPQEAQLDSSPDPYVLTRDVYIQRQNFKAEIDTVEEVNPEEEALLDEYLDEF | not soluble |
| MSISTEQTILTQLKTIRTKRASTTGEQKWLQQHITEANLRRLLPDISIVGLHLLSELEAGPQTGIDLATNLGVTRGGVTRAAKRLVTQGLIGSFQQPDDHKKIFYRLTPSGRKLARYHDKMHATRNHQAITLLHEHYSPAELAVIQRFLADLTDYEA | not soluble |
| VDSKKRPGKDLDRIDRNILNELQKDGRISNVELSKRVGLSPTPCLERVRRLERQGFIQGYTALLNPHYLDASLLVFVEITLNRGAPDVFEQFNTAVQKLEEIQECHLVSGDFDYLLKTRVPDMSAYRKLLGETLLRLPGVNDTRTYVVMEEVKQSNRLVIKTR | soluble |
| MGSDKIHHHHHHMQLSAMFVHPVKSCRGIAFDRAYAGKLGLLHDREWLLVSPDGQQITARAHPKLVTIRVELLPGGALLHHSGKAPIFAMATAYTRPHPAQVWKDGFQAWHGDERVDAWFADILGCDCRLLWLGAQSNRPFKGGPETMSFADGYPFLLASQASLDDLNRQLAAPVTLRHFRPNLVVSGAYPWEEDEWQVIRIGDVEFDVVKPCVRCVLTTVDPELGEKRADGEPLQTLIRTRMLDAGVCFGMNLRARNEGVLELGAPVEVLEQRYSF | not soluble |
| MPSTADTVEVDFITPRHLAGGGDPAWITVPLHRACGWSHGHDPLMPRALLSSPDQKALLRLEPDPDGQWWTLNHTAESGRPAWYASFGARTPVELIAAFTDALTAPAPPTDAPCDPFEPLRQIAWSAPAVGADGLVSPDGTAYVQRQGSADGPGAWFVTVTLGPRPVWQARFDAHTPEHLVAAFTTALADPKPALRTDSGRSLPTRNPNVVTRKTTDVLAVDIAGALEERVQTLTTRHPLPPANPMPPTPPPTRHGRSRLEHHHHHH | soluble |
| MTMTMSYKAIEKIPRCSWNREEPGEQWNKIYSVETGLLGTYSFEWQSQVANKTMRKRNTNSICGRQHEPHCPVSITRAIAQPQLLTFPDSLASRGGHMTQSGQCHVSGSLLGRGHKSRGR | soluble |
| MSLQNFDFNEALKGIQAGKPITGSDGVLAPLIKQLTEAALNAEIQSHLEQSSTSNRRNGYSKKTVKSAAGSFELETPRDRNGEYEPVLVKKHQTKLTAEIDSRILSLFSHGMSYRDIRHHIAEIYQLEVSEATISSITDELIPQLKAWQSRPLDSVYPFVWLDAIHYKVKDEGRYVSKAIYTLLALNTEGKKELIGLYCSESEGANYWLSVLTDLHNRGVQDILIACVDGLKGFPEAINAIFPNTEVQLCVIHQIRNSIRYVASRDQKAFMRDLKPVYKAVNKESAELALDDLEAVWGDQYPAVIKSWRDKWHLLSAYFKYPEAVRKPIYTTNAVEAVHRQFRKLTKTKGAFPNETSLLKLLYVGMLNASAKWTMPIRNWGQTMMQLSIYFPGRLDSVMREGHHHHHH | soluble |
| AARPRKNNVSVPNLYPLYSRKVNKVYWRYKHPVTGKFHALGTNEAEAIAIATEANTRLAEQRTRQILAISDRIATSKGKAITTSTWLDRYQAIQDDRLKSGDIRLNTYKQKAKPVSLLRERAGMKLISAVDVRDIAQLLDEYIAAGRPRMAQVVRSVLIDVFKEAQHYGEVPPGYNPALATKQPRRKITRQRLSLEEWKKIFDIADATHRYMGNAMLLALVTGQRLGDISRMKFSDIWDDHLHVIQEKTGSKIAIPLSLRLNAINWSLRDVVARCRDYAVSAYLVHFFRSTSQAERGAQVKANTLTMNFSKARDLARIDWGEGSPATFHEQRSLSERLYKEQGLDTQKLLGHKTQQQTDRYHDDRGKGWSKVAL | not soluble |
| KKEKSPKGKSSISPQARAFLEEVFRRKQSLNSKEKEEVAKKCGITPLQVRVWFINKRMRSK | soluble |
| MAAATGGLTPEQIIAVDGAHLWHPYSSIGREAVSPVVAVAAHGAWLTLIRDGQPIEVLDAMSSWWTAIHGHGHPALDQALTTQLRVMNHVMFGGLTHEPAARLAKLLVDITPAGLDTVFFSDSGSVSVEVAAKMALQYWRGRGLPGKRRLMTWRGGYHGDTFLAMSICDPHGGMHSLWTDVLAAQVFAPQVPRDYDPAYSAAFEAQLAQHAGELAAVVVEPVVQGAGGMRFHDPRYLHDLRDICRRYEVLLIFDEIATGFGRTGALFAADHAGVSPDIMCVGKALTGGYLSLAATLCTADVAHTISAGAAGALMRGPTFMANPLACAVSVASVELLLGQDWRTRITELAAGLTAGLDTARALPAVTDVRVCGAIGVIECDRPVDLAVATPAALDRGVWLRPFRNLVYAMPPYICTPAEITQITSAMVEVARLVGSLP | soluble |
| MAHHHHHHMPPQRQCSHCEKEKAVLKRPRNGKLLCQRCFFNLFEAEVHETIMKEKLFKPGDIVACGASGGKDSTVLIHLMKLLNEQHEYGIQLLLLSIDEGIAGYRDDSLKTVHRNAEVYNLPLRVLSYKELYGWTMDEVVKVTGLRSSCTYCGVFRRQALDRGAAMLGATKVVTGHNADDLAETILMNILRGDLPRLSRCTSAITSGESLLPRVKPLKYAYEKEIVLYAHFKKLDYFTTECTYSKEAFRSEARTLLKNIEILQPRCILDTIRTGEQLRVKEQECATENPPSACTRCGYVTSQSLCRACVLLQGLNMNGPAVCVREQPQPQQQQQQQNVEVEGQ | not soluble |
| GPGSMVEYKSAAAIAQALFTTHGKDSTTFNRLLRDRIGKRGDRFTEDHPDTFLYIERSKNANVVAYTARFVDAETKKPVPSGVGRDCIIKHDGPVHAYFITLDPQQMEKLRAKGRTSLIDDLNFVQRKMAYGCSGKSFDVASASRECDNPADFKRWMSAFDPYTLSYVALAKYPTLLLTLKPVKDSNGEENDTAVALIAVIGGELSVVKKIYVSSTEPKHFYELPTVNYIEVFGVSVDKGSDTYEKKAP | not soluble |
| NADAQTKLQIIDLKTRLRLALPNLPGGDLRGVNFSADASQLVFYINSDTSPSNLYVHKLGSTGVKRLTNTGNPNILEDNLVEGEVVRFKSFDGLDIPGILYKPKQAEFNKVPALVFIHGGPGGQSRKGYSALVQHLVNNGYAIFKVNNRGSSGYGKTFFHLDDKKHGDHDLKDVVYNKYYLQSLDWVDKDRIGVIGGSYGGYLTMAAMAFTDEFQAGVNIFGVTNWVRTLESIPPYWEAFRKSLYDELGDPNTDKERLHNISPVFFGHQIKKPVLVVQGKNDPRVLKIESDEMVDSIRSGGTYVDYLVFDDEGHGFSKKANRIEASNKYLNFFKTQL | not soluble |
